The values below are quoted from earlier work in paper PMC4077824, “Conserved Prosegment Residues Stabilize a Late-Stage Folding Transition State of Pepsin Independently of Ground States” (PLoS ONE, 2014).

The subject of this data set is αLP. The source says:
General thermodynamic and kinetic features of protein folding are known, such as that the natively folded conformation of a protein is thermodynamically stabilized and that there is a relationship between topology and folding rate, which holds for both two-state and multi-state folding proteins, [3]. […] In the case of pepsin, Rp was characterized by a ΔG unf of 5.8 kcal/mol, a 10% increase in unordered secondary structure and identical tertiary structure to Np (both yield R g ∼20 Å).

B1: αLP: serine peptidase αLP (alpha-lytic protease) (protein, UniProt P00778 200-397, looked up)
Alpha-lytic protease: ANIVGGIEYSINNASLCSVGFSVTRGATKGFVTAGHCGTVNATARIGGAVVGTFAARVFPGNDRAWVSLTSAQTLLPRVANGSSFVTVRGSTEAAVGAAVCRSGRTTGYQCGTITAKNVTANYAEGAVRGLTQGNACMGRGDSGGSWITSAGQAQGVMSGGNVQSNGNNCGIPASQRSSLFERLQPILSQYGLSLVTG
On to B1, for which, where the note is “native state relative to an intermediate state, ref [8]”, the “ΔG N-I” value is -4 kcal/mol. Further, the “stability of intermediate over native state” value (αLP intermediate more stable than native state, ref [4]) was 4 kcal/mol. The ΔG unf (αLP intermediate, ref [4]) is reported as 1 kcal/mol.
